PMC12409426, “Regulation of the MDM2-p53 nexus by a nuclear phosphoinositide and small heat shock protein complex” (The Journal of Biological Chemistry, 2025)

Experiments:
Settings in all cases: both partners purified
[1] = target: T1, FLAG-tagged MDM2 (mammalian-expressed, PIPn-linked) (UniProt Q00987 1-491, PIP2 stably associated (PIPn-linked), site not told); assay: MST; fluorescence-labeled αBC or HSP27 (target, 5 nM, RED-NHS) constant, non-labeled His-/FLAG-MDM2 or His-/FLAG-p53 titrated to 500 nM; 50 mM Tris-HCl pH 8.0, 50 mM NaCl, 80 mM KCl, 0.05% Tween-20
T1 construct: MDM2; cDNA purchased from OriGene; Its chemistry and site are unknown; also called FLAG-MDM2; PIPn-linked MDM2; source: HEK293FT, purified (FLAG Purification Kit), dialysed into PBS
T1 sequence (Q00987 whole entry): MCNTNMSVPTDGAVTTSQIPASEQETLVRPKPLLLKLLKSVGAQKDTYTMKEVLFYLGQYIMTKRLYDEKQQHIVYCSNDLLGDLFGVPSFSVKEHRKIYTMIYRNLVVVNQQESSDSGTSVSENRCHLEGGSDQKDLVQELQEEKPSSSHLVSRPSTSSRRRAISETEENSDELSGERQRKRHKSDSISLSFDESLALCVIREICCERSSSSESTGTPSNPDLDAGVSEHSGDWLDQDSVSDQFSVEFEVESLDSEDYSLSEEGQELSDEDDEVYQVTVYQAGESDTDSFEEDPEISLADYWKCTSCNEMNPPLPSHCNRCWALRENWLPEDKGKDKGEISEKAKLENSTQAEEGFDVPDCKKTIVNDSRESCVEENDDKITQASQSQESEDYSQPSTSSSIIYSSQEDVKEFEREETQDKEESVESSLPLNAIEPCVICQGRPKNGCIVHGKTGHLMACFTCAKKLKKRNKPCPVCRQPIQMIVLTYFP

[2] = target: T2, His-tagged MDM2 (recombinant, bacteria-expressed) (UniProt Q00987 1-491); assay: as above
T2 construct: MDM2, E3 ubiquitin-protein ligase; His-tagged construct purchased from Genscript; also called His-MDM2; MDM2 recombinant protein; source: E. coli BL-21(DE3), purified (Ni-NTA-agarose)
T2 sequence (Q00987 whole entry): as above

[3] = target: T2, His-tagged MDM2 (recombinant, …); assay: MST; fluorescence-labeled MDM2 (target, 5 nM, RED-NHS) constant, non-labeled ligand titrated to 500 nM; 50 mM Tris-HCl pH 8.0, 50 mM NaCl, 80 mM KCl, 0.05% Tween-20; Monolith NT.115 Pico

B1: αB-crystallin (recombinant, His-tagged) (natural protein, UniProt P02511 1-175, looked up)
chain: MDIAIHHPWIRRPFFPFHSPSRLFDQFFGEHLLESDLFPTSTSLSPFYLRPPSFLRAPSWFDTGLSEMRLEKDRFSVNLDVKHFSPEELKVKVLGDVIEVHGKHEERQDEHGFISREFHRKYRIPADVDPLTITSSLSSDGVLTVNGPRKQVSGPERTIPITREEKPAVTAAPKK
notes: αB-crystallin; His-tagged construct purchased from Genscript; source: E. coli BL-21(DE3), purified (Ni-NTA-agarose)
- Kd [1]: 7 ± 1 nM
- Kd [2]: 58 ± 5 nM
- Kd [3]: 58 ± 5 nM
